Source: PMC9547003

Biological target: bacteriophage T7 endonuclease I (C113S, S29C; called wild type in the paper), Cy3-labelled (bacteriophage T7) (UniProt P00641)
Experiment: two-step photobleaching of single fluorescent molecules (confocal microscopy with optical tweezers); Cy3-labelled endonuclease I (one dye on each monomer) diffusing on force-stretched dsDNA held between optically trapped beads; 1 nM protein, 25 mM Tris-HCl pH 7.5, 50 mM NaCl, 0.1% BSA, 1 mM CaCl2 or MgCl2

For “bacteriophage T7 endonuclease I (C113S, S29C; called wild type in the paper), Cy3-labelled (from UniProt P00641 1-149) (enzyme)”, the stoichiometry N was 2.
